Results: patent publication US20250262210A1 (TRUSTEES OF COLUMBIA UNIVERSITY IN THE CITY OF NEW YORK, published 2025)

Biological target: T1, FBX038 (human, UniProt Q6PIJ6 1-1188, limits assumed)
T1 construct: Printed with a zero; probably FBXO38
T1 sequence (looked up): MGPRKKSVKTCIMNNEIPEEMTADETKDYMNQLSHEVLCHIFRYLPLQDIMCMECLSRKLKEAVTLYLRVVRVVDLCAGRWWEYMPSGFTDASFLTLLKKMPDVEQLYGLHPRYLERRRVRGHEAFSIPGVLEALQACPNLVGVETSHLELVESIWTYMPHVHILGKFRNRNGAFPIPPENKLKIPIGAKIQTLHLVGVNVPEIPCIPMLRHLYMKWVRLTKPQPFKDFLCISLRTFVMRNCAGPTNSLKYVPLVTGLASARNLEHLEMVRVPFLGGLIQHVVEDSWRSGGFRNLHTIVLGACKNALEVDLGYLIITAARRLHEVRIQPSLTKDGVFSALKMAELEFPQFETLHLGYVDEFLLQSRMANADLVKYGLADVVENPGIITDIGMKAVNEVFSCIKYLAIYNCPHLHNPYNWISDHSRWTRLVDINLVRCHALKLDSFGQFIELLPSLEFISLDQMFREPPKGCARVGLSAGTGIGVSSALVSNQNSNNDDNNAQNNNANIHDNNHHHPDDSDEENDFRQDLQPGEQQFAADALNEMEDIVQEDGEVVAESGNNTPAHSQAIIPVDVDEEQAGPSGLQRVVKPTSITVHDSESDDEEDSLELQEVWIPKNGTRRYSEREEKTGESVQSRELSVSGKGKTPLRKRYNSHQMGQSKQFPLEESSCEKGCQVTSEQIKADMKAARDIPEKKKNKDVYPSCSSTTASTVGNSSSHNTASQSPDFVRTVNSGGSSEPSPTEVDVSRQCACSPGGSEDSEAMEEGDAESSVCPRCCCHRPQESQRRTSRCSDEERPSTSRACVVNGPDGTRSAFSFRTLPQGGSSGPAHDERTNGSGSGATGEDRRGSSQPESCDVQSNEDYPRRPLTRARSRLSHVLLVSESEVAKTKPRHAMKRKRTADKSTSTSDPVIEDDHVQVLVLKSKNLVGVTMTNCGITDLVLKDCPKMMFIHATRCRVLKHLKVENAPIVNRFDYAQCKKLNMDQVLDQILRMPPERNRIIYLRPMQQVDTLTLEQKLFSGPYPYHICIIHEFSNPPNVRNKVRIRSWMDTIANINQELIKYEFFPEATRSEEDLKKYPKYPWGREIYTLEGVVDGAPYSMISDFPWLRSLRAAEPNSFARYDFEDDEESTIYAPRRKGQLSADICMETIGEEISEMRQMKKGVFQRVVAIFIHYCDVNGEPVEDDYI
Assay: IP/MS, LZTR1 R810W-FLAG, U87
In short: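 Extracted peptides in 3% acetonitrile/0.1% formic acid ran on a 50 cm C18 column into an Orbitrap Fusion, with MaxQuant identification and spectral counting.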

B1: LZTR1 R810W-FLAG (other, human, UniProt Q8N653 1-840, looked up)
chain: MAGPGSTGGQIGAAALAGGARSKVAPSVDFDHSCSDSVEYLTLNFGPFETVHRWRRLPPCDEFVGARRSKHTVVAYKDAIYVFGGDNGKTMLNDLLRFDVKDCSWCRAFTTGTPPAPRYHHSAVVYGSSMFVFGGYTGDIYSNSNLKNKNDLFEYKFATGQWTEWKIEGRLPVARSAHGATVYSDKLWIFAGYDGNARLNDMWTIGLQDRELTCWEEVAQSGEIPPSCCNFPVAVCRDKMFVFSGQSGAKITNNLFQFEFKDKTWTRIPTEHLLRGSPPPPQRRYGHTMVAFDRHLYVFGGAADNTLPNELHCYDVDFQTWEVVQPSSDSEVGGAEVPERACASEEVPTLTYEERVGFKKSRDVFGLDFGTTSAKQPTQPASELPSGRLFHAAAVISDAMYIFGGTVDNNIRSGEMYRFQFSCYPKCTLHEDYGRLWESRQFCDVEFVLGEKEECVQGHVAIVTARSRWLRRKITQARERLAQKLEQEAAPVPREAPGVAAGGARPPLLHVAIREAEARPFEVLMQFLYTDKIKYPRKGHVEDVLLIMDVYKLALSFQLCRLEQLCRQYIEASVDLQNVLVVCESAARLQLSQLKEHCLNFVVKESHFNQVIMMKEFERLSSPLIVEIVRRKQQPPPRTPLDQPVDIGTSLIQDMKAYLEGAGAEFCDITLLLDGHPRPAHKAILAARSSYFEAMFRSFMPEDGQVNISIGEMVPSRQAFESMLRYIYYGEVNMPPEDSLYLFAAPYYYGFYNNRLQAYCKQNLEMNVTVQNVLQILEAADKTQALDMKRHCLHIIVHQFTKVSKLPTLWSLSQQLLLDIIDSLASHISDKQCAELGADI
notes: Stably expressed in U87 cells by lentivirus; also called LZTR1-FLAG-R810W; LZTR1 RW; not shown: FLAG tag
- binding result: binds
